Results from the supplement of paper PMC10567573.

B1: SLC2A12 (parent)
chain: TRIMIGLTLVFFVQITGQPNILFY
B2: ZNF193 (parent)
chain: QKRYHCKECGKVFSQSAGLIQHQR

Variants of: B1
Assay: protein stability index of a GFP-peptide fusion (GPS, HEK-293T) (PSI 1-6); higher = more stable
Conditions: c terminus: a fixed tail appended
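Further: lentivirally expressed fusions sorted by FACS into six bins by GFP to DsRed ratio, PSI derived from sequencing read proportions per bin multiplied by bin number.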

Protein stability index, by site and new letter:
I21: D 3.69 | G 4.22 | S 4.17 | P 3.17 | L 2.73 | A 2.81 | E 3.88
Y24: F 5.58 | P 3.53 | R 3.44 | S 2.89 | A 3.48 | M 4.11 | N 2.88 | H 2.29 | E 3.1 | G 2.83 | Q 2.06 | I 3.33 | V 4.22 | C 3.19
I3: M 3.1 | A 2.59 | K 2.94 | L 2.85 | N 2.12 | T 1.84 | G 2.12 | Y 3.58 | F 2.81 | H 2.87
I5: A 2.6 | F 3.16 | L 3.43 | Q 3.43 | T 2.83 | E 3.74 | H 3.25 | R 2.21 | K 3.18 | V 2.69 | Y 2.65
F12: D 2.7 | N 3.88 | E 2.77 | W 2.48 | Y 3.14 | P 4.16 | L 3.53 | V 3.31 | H 3.17 | M 2.49 | S 3.48 | I 2.79 | K 2.95 | Q 3.16 | A 4.95
L22: C 3.96 | Q 1.83 | F 2.79 | I 1.48 | W 2.65 | K 1.94 | H 2.65 | M 2.97 | S 3.01 | D 3.15
N20: I 2.48 | T 2.22 | S 2.15 | Y 2.54 | C 3.04 | E 2.12 | P 3.22 | G 3.69 | F 2.45 | K 4.43 | A 3.57 | Q 2.61 | R 2.67 | V 2.81 | M 3.84
G6: H 2.34 | D 2.73 | T 3.1 | Q 2.82 | E 3.67 | I 1.06 | R 2.75 | A 1.78 | Y 2.48 | F 4.16 | K 2.19 | C 2.87 | L 2.22 | V 2.43 | M 2.46 | W 1.9
L9: D 3.04 | F 5.04 | I 3.09 | R 3.25 | M 2.58 | A 3.04 | G 2.8 | C 2.63 | W 2.24 | N 2.69 | Q 1.7
G17: R 3.35 | Q 2.8 | V 2 | T 2.58 | L 2.86 | N 3.03 | P 3.68 | Y 3.48 | W 2.11 | A 2.96 | M 3.31 | H 2.87 | K 2.58
T16: I 4.14 | H 3.42 | N 4.04 | S 3.65 | P 3.4 | Q 3.11 | A 2.63 | E 2.95
F11: C 3.27 | Y 3.02 | S 3.83 | I 3.63 | K 2.68 | G 2.78 | T 3.22 | Q 3.49 | P 2.09 | R 2.16 | N 2 | L 2.5 | E 1.63 | D 2.15

Variants of: B2
Assay: as above
Conditions: c terminus: a fixed tail appended

Protein stability index: each site, then its substitutions
R24: P 2.44 | A 2.83 | T 2.33 | F 2 | W 2.1 | Q 2.48 | H 3.44 | V 2.28 | N 2 | S 2.43 | I 1.96 | D 3.33 | L 1.43 | K 3.65 | M 2.44 | Y 2.5 | E 3.53 | G 3.05 | C 4.52
Q23: V 2.37 | T 2.51 | W 1.97 | Y 2.4
